Tests used:
Conditions in all cases: both partners purified
active C1r = active C1r (human, UniProt P00736, activated two-chain form, cleaved between 463 and 464 (cleavage limits from UniProt chain features), heavy and light chains disulfide-linked; plasma-purified glycoprotein; native C1r forms a Ca-depend); experiment: SPR; FbpA-C or FbpB-C immobilised by amine coupling; full-length C1r zymogen or active C1r injected, fivefold dilution series 0-100 nM, single cycle, final dissociation 1 hour; Biacore T200, 25°C; kinetic fits
C1r zymogen = target: T1, C1r zymogen (human, UniProt P00736 18-705); experiment: as above
T1 construct: also called zymogen form of full-length purified C1r; zymogen C1r; source: bought: Complement Technology, Inc. (purified)
T1 sequence: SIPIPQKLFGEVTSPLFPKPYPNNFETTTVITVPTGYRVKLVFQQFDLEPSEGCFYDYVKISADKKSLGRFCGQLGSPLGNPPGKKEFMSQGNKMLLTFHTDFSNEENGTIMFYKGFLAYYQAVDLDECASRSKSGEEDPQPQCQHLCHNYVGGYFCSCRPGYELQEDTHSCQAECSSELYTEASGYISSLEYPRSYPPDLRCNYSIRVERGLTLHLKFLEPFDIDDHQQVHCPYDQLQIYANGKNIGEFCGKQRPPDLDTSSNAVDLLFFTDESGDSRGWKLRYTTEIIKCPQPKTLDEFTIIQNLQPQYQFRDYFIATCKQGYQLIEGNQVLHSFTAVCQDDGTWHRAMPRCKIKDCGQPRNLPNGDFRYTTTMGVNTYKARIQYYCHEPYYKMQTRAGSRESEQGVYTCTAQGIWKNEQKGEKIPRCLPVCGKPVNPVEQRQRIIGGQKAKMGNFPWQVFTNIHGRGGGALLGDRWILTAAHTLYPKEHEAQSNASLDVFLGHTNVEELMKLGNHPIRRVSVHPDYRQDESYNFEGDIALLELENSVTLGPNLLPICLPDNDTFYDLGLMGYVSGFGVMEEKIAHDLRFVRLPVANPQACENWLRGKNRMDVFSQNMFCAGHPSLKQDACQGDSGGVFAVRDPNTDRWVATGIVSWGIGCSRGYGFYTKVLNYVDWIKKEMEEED

C1r-CCP2-SP = target: T2, C1r-CCP2-SP (human); experiment: SPR; FbpA-C, FbpB-C or FbpA DA-C immobilised by amine coupling; C1r-CCP2-SP injected, twofold dilution series 0-100 nM, multi-cycle; Biacore T200, 25°C, 30 μL/min; kinetic fits
T2 construct: source: recombinant (pT7HMT-C1r-CCP2-SP), purified by previously published protocols with a final gel filtration step
T2 sequence (A0A0U2RP97 entry or part of it): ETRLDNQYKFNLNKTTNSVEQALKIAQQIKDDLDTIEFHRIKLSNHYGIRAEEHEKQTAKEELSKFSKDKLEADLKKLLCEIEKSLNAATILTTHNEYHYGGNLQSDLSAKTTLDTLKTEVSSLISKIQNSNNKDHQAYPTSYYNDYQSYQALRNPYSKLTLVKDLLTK

Binder	Kd (active C1r) [pM]	koff (active C1r) [s⁻¹]	kon (active C1r) [M⁻¹ s⁻¹]	Kd (C1r zymogen) [pM]	koff (C1r zymogen) [s⁻¹]	kon (C1r zymogen) [M⁻¹ s⁻¹]	Kd (C1r-CCP2-SP) [pM]	koff (C1r-CCP2-SP) [s⁻¹]	kon (C1r-CCP2-SP) [M⁻¹ s⁻¹]
FbpA-C (domain or fragment, Made from pT7HMT-FbpA-C; also called FbpA(222-371); C-terminal truncation construct of B. miyamotoi FbpA; source: E. coli BL21 (DE3), purified (Ni column, TEV, gel filtration)) GSTGSDNRYKSYLEGVRYNVSAAIGSIDKIYNNYKLFEEQRTKMYSTRLDTVTKDQAKKEAEKFTKEELEKDLKELLNYIQVSAKTATNFVYQKEQYAKQRLDKLETEVKTLISEVQGQSHPYEAYKAIVRSKFLQMKDSLEVVKGVIDRDGPWY	390	2.7e-05	68000	850	1.9e-05	22000			
FbpB-C (domain or fragment) DNQYKFKLKNITDSVEQALKIAKQIKDDLDIIEFHRIKLSNHYGIRAEEHEKQTAREELSKFSKDKLEADLKKLLSEIEKSLNAATILITYNDYGGNLQSDLSAKTTLEALKTEVSSLITKIQDFNNKDHQAYPTSYYNDYQTYQALRNPYSKLTLVKDLLTRTGIVAR	1100	7.6e-05	68000				1400	0.00055	390000
